Data taken from patent US20240207432A1 (BIOSION, published 2024).
Like-named read-outs stand apart in the source and are kept apart here.

Legend:
[1] = target: T1, full length human TROP2 on 293F-TROP2 cells (human, UniProt P09758 27-323); test: FACS on 293F-TROP2 cells, MFI
T1 construct: also called 293F-TROP2 cells (clone ID #3A8); cell surface TROP2
T1 sequence: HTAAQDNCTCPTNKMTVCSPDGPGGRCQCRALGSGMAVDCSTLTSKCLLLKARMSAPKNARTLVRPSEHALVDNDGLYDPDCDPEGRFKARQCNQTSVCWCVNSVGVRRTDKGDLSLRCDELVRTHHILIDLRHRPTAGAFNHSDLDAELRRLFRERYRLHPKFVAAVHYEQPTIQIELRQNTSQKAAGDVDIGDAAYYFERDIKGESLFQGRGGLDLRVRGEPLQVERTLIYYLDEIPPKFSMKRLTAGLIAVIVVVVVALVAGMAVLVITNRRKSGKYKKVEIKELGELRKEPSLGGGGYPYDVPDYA
Procedure: The binding activity of the mouse anti-TROP2 antibodies to cell surface TROP2 proteins was tested by flow cytometry (FACS), using Biosion in-house prepared 293F-TROP2 cells (clone ID #3A8) stably expressing full length human TROP2s (uniprot #P09758, SEQ ID NO.: 71) on cell membrane. The 293F-TROP2 cells were prepared by transfecting 293F cells (Thermofisher Inc., Cat #11625019) with a pCMV-T-P plasmid inserted with human TROP2 coding sequence between EcoRI and XbaI sites, following the instruction of lipofectamine 3000 transfection reagent (Thermo Fisher).
(§1) The 293F-TROP2 cells were harvested from cell culture flasks, washed twice and re-suspended in phosphate buffered saline (PBS) containing 2% v/v Fetal Bovine Serum (FACS buffer). […] Following an incubation of 40 minutes at 4° C. in dark, cells were washed twice and re-suspended in FACS buffer. Fluorescence was measured using a Becton Dickinson FACS Canto II-HTS equipment, and the MFI (mean fluorescence intensity) was plotted against antibody concentration. Data was analyzed using Graphpad Prism software and EC₅₀ values were reported.

[2] = target: T2, cynomolgus TROP2-his protein (cynomolgus monkey, UniProt P09758 27-272 (human entry), limits assumed); test: indirect ELISA, cynomolgus TROP2-his coated at 2 ug/mL, OD(450-630)
T2 construct: no cleavage site is stated; also called Cynomolgus monkey TROP2-his protein; monkey TROP2
T2 chain: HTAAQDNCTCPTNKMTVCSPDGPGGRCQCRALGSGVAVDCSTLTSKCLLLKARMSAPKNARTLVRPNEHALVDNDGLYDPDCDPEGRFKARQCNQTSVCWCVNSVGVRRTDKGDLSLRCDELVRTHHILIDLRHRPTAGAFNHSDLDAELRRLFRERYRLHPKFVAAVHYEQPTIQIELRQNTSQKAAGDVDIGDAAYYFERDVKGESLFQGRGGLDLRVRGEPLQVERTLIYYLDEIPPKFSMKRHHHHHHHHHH
Procedure: (§2) The anti-TROP2 antibodies of the disclosure were tested for their cross-reaction with cynomolgus TROP2 proteins. Briefly, 96-well micro plates were coated with 100 μl 2 μg/ml cynomolgus TROP2-his proteins (prepared in-house with SEQ ID NO: 70) in carbonate/bicarbonate buffer (pH 9.6) overnight at 4° C. ELISA plates were washed once with wash buffer (PBS+0.05% v/v Tween-20, PBST) and then blocked with 200 μl/well blocking buffer (5% w/v non-fatty milk in PBST) for 2 hours at 37° C. […] After a final wash, plates were incubated with 100 μl/well TMB (Innoreagents) at room temperature. The reaction was stopped 3-10 minutes later at room temperature with 50 μl/well 1M H₂SO₄, and the absorbance of each well was read on a microplate reader using dual wavelength mode with 450 nm for TMB and 630 nm as the reference wavelength. The OD (450-630) values were plotted against antibody concentration. Data was analyzed using Graphpad Prism software and EC₅₀ values were reported.

human TROP2-his protein [3] = target: T3, human TROP2-his protein (human, UniProt P09758 27-274); test: SPR Biacore T200, mAb captured on anti-mouse IgG CM5 chip, TROP2-his analyte
T3 construct: Biotin-labelled in the ELISAs, unlabelled analyte in Biacore; also called biotin-labeled human TROP2-his protein; biotin human Trop2-his
T3 sequence: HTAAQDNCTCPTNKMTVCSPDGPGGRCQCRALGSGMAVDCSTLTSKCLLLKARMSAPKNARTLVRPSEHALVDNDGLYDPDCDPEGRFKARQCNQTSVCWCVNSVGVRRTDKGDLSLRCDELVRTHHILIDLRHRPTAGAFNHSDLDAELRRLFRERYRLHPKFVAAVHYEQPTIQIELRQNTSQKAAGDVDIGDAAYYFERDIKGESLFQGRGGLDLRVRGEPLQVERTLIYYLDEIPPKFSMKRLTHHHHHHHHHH
Procedure: (§3) Un-reacted moieties on the chip (biosensor) surface were blocked with ethanolamine. […] The antigen-antibody association kinetics was followed for 2 minutes and the dissociation kinetics was followed for 10 minutes. The association and dissociation curves were fit to a 1:1 Langmuir binding model using BIAcore evaluation software.

[4] = target: T2, cynomolgus TROP2-his protein; test: as above
Procedure: as §3

human TROP2-his protein [5] = target: T3, human TROP2-his protein; test: capture ELISA, antibody captured on anti-mouse IgG Fc coat, biotin human TROP2-his in solution, OD(450-630)
Procedure: (§4) Plates were washed once with wash buffer (PBS+0.05% v/v Tween-20, PBST) and then blocked with 200 μl/well blocking buffer (5% w/v non-fatty milk in PBST) for 2 hours at 37° C. […] Plates containing captured anti-TROP2 antibodies were incubated with biotin-labeled human TROP2-his protein (prepared in house, SEQ ID NO: 67, 56.7 ng/mL in 2.5% w/v non-fatty milk in PBST, 100 μl/well) for 40 minutes at 37° C., washed 4 times, and incubated with streptavidin conjugated HRP (1:10000 dilution in PBST, Jackson Immuno Research, Cat #016-030-084, 100 μl/well) for 40 minutes at 37° C. After a final wash, plates were incubated with 100 μl/well ELISA substrate TMB (Innoreagents, Cat #TMB-S-002) at room temperature. The reaction was stopped in 3-10 minutes at room temperature with 50 μl/well 1M H₂SO₄, and the absorbance of each well was read on a microplate reader using dual wavelength mode with 450 nm for TMB and 630 nm as the reference wavelength. The OD (450-630) values were plotted against antibody concentration. Data was analyzed using Graphpad Prism software and EC₅₀ values were reported.

human TROP2-his protein [6] = target: T3, human TROP2-his protein; test: competitive ELISA: BM1 coated at 1 ug/mL, antibody premixed with biotin human TROP2-his; blocked: binding of TROP2-his to coated BM1
Procedure: The mouse anti-TROP2 antibodies were tested for epitope binding in a competitive ELISA assay. […] ELISA plates were washed once with wash buffer (PBS+0.05% v/v Tween-20, PBST) and then blocked with 200 μl blocking buffer (5% w/v non-fatty milk in PBST) for 2 hours at 37° C. While blocking, the anti-TROP2 antibodies or controls were diluted with biotin labeled human TROP2-his protein (SEQ ID NO: 67, 34 ng/mL in 2.5% wA non-fatty milk in PBST), starting at 80 nM with a 5-fold serial dilution, and incubated at room temperature for 40 minutes. After plate washing for 4 times, the antibody/TROP2-his protein mixtures were added to the antibody coated plates, 100 μl per well. After incubation at 37° C. for 40 minutes, plates were washed 4 times again using wash buffer. Then the plates were added and incubated with 100 μl Peroxidase Streptavidin (1:10000 dilution in PBST buffer. Jackson Immunoresearch, Cat #016-030-084) for 40 minutes at 37° C. Plates were washed again using wash buffer. Finally, TMB was added and the reaction was stopped using 1M H₂SO₄. The absorbance of each well was read on a microplate reader using dual wavelength mode with 450 nm for TMB and 630 nm as the reference wavelength, and the OD (450-630) values were plotted against antibody concentration. Data was analyzed using Graphpad Prism software and IC₅₀ values were reported.

[7] = target: T2, cynomolgus TROP2-his protein; test: indirect ELISA, cynomolgus TROP2-his coated at 2 ug/mL, OD(450-630)
Procedure: as §2

[8] = target: T1, full length human TROP2 on 293F-TROP2 …; test: FACS on 293F-TROP2 cells, MFI; remark: listed apart in the source
[9] = target: T1, full length human TROP2 on 293F-TROP2 …; test: FACS on 293F-TROP2 cells, MFI; remark: listed apart in the source
Procedure: as §1

[10] = target: T2, cynomolgus TROP2-his protein; test: indirect ELISA, cynomolgus TROP2-his coated, OD(450-630)
[11] = target: T2, cynomolgus TROP2-his protein; test: as above
human TROP2-his protein [12] = target: T3, human TROP2-his protein; test: SPR Biacore, antibody captured on anti-human IgG CM5 chip, TROP2-his analyte
Procedure: as §3

[13] = target: T2, cynomolgus TROP2-his protein; test: as above
Procedure: as §3

human TROP2-his protein [14] = target: T3, human TROP2-his protein; test: as above; remark: listed apart in the source
Procedure: as §3

[15] = target: T2, cynomolgus TROP2-his protein; test: as above
Procedure: as §3

human TROP2-his protein [16] = target: T3, human TROP2-his protein; test: capture ELISA, antibody captured on anti-human IgG Fc coat, biotin human TROP2-his in solution, OD(450-630)
Procedure: as §4
For the capture ELISA, AffiniPure Goat Anti-Human IgG, Fcγ fragment specific (Jackson Immuno Research, Cat #109-005-098) was used instead of AffiniPure Goat Anti-Mouse IgG, Fcγ fragment specific, 100 μl/well.

human TROP2-his protein [17] = target: T3, human TROP2-his protein; test: as above; remark: listed apart in the source
Procedure: as §4
For the Capture ELISA, AffiniPure F(ab′)₂ Fragment Goat Anti-Human IgG, Fcγ fragment specific (Jackson Immunoresearch, Cat #109-006-008) was used instead of AffiniPure Goat Anti-Mouse IgG, Fcγ fragment specific, 100 μl/well.

human TROP2-his protein [18] = target: T3, human TROP2-his protein; test: competitive ELISA: BM1 coated, antibody premixed with biotin human TROP2-his; blocked: binding of TROP2-his to coated BM1; partial only: OD falls from about 1.9 to a plateau of about 1.3

B1: mouse antibody A1B12D2B4E7B3 (antibody, V domains shown)
VH: EVQLQQSGPELVKPGASVKMSCKASGFTFTDYYMNWVKQSHGKSLEWIGYIYPNHGGTGYNQKFKDKATLTVDKSSSTAYMELRSLTSDDSAVYYCARENYGYAMDYWGQGTSVTVSS
VL: DVVMTQTPLSLPVSLGDQASISCRSSQSLVHGDGNTYLHWFLQKPGQSPKLLIYTVSNRFSGVPDRFSGSGSGTDFTLKINRVEAEDLGIYFCSQTTHVPTFGGGTKLEIK
notes: Mouse monoclonal IgG purified from hybridoma supernatant
B1 showed an EC50 [1] of 0.896 nM, an EC50 [2] of 0.578 nM and a Kd (human TROP2-his protein [3]) of 1.06 nM. For the same binder, the koff (human TROP2-his protein [3]) was 8.92e-05 s⁻¹, the kon (human TROP2-his protein [3]) was 84000 M⁻¹ s⁻¹ and the Kd [4] was 1.12 nM. It also gave a koff [4] of 0.000124 s⁻¹, a kon [4] of 111000 M⁻¹ s⁻¹ and an EC50 (human TROP2-his protein [5]) of 0.248 nM. The IC50 (human TROP2-his protein [6]) was 1.55 nM.

B2: mouse antibody B1G1F5A3 (antibody, V domains shown)
VH: EVQLQQSGPELVKPGTSVKMSCKASGYSFADYSMNWVRQSHGNSLEWIGYIYPNNGASGFNQKFKGKATLTVDKSSSTAYMELHSLTSEDSAVYYCAREQDNSGYCFDYWGQGTSLTVSS
VL: DVVMTQTPLSLAVRLGDQASISCRSSLNLVHSNGNTFLHWYLQRPGQSPKLLIYKVSNRFSGVSDRFSGSGSGTDFTLKISRVEAEDLGVYFCSQTTHVPTFGGGTKLEIK
notes: as for B1
B2 was tested, and the EC50 [7] was 0.863 nM, the Kd (human TROP2-his protein [3]) was 0.416 nM and the koff (human TROP2-his protein [3]) was 5.58e-05 s⁻¹. For the same binder, the kon (human TROP2-his protein [3]) was 134000 M⁻¹ s⁻¹, the Kd [4] was 0.568 nM and the koff [4] was 8.86e-05 s⁻¹. The kon [4] was 156000 M⁻¹ s⁻¹, the EC50 (human TROP2-his protein [5]) was 0.335 nM and the IC50 (human TROP2-his protein [6]) was 0.516 nM.

B3: chimeric A1E4F7D4 (antibody, human IgG1, kappa, V domains shown)
VH: QVQLQQSGAELAKPGTSVKMSCEASGYSFTTHWIHWMKQRPGQGLEWIGTIFPSNAYAVYNQKFRDRAIMTADRSSTTAYIQLTGLTSEDSAVYYCARASYFDYWGQGTTLTVSS
VL: DILLTQSPATLSVSPGERVTFSCRASQNIGTSIHWFQQRTTGSPRLLIKYASESISGIPSRFSGSGSGTDFTLHINSVESEDIAHYYCQHSHSWPFTFGSGTKLEIQR
notes: also called chimeric antibody A1E4F7D4
B3 showed an EC50 [8] of 0.36 nM, an EC50 [9] of 0.575 nM and an EC50 [10] of 0.967 nM. The EC50 [11] was 0.237 nM, the Kd (human TROP2-his protein [12]) was 0.0326 nM and the koff (human TROP2-his protein [12]) was 3.13e-05 s⁻¹. The kon (human TROP2-his protein [12]) was 961000 M⁻¹ s⁻¹, the Kd [13] was 0.247 nM and the koff [13] was 0.000171 s⁻¹. For the same binder, the kon [13] was 692000 M⁻¹ s⁻¹, the Kd (human TROP2-his protein [14]) was 0.185 nM and the koff (human TROP2-his protein [14]) was 0.000194 s⁻¹. The kon (human TROP2-his protein [14]) was 1.05e+06 M⁻¹ s⁻¹, the Kd [15] was 0.134 nM and the koff [15] was 0.000163 s⁻¹. The kon [15] was 1.22e+06 M⁻¹ s⁻¹, the EC50 (human TROP2-his protein [16]) was 0.0979 nM and the EC50 (human TROP2-his protein [17]) was 0.0732 nM. It also gave an IC50 (human TROP2-his protein [18]) of 0.447 nM.
